In patent US20220411477A1 (MONASH UNIVERSITY, published 2022):

T1: AMH-specific type II receptor, AMHR2 (UniProt Q16671 18-573, limits assumed)
T1 sequence (looked up): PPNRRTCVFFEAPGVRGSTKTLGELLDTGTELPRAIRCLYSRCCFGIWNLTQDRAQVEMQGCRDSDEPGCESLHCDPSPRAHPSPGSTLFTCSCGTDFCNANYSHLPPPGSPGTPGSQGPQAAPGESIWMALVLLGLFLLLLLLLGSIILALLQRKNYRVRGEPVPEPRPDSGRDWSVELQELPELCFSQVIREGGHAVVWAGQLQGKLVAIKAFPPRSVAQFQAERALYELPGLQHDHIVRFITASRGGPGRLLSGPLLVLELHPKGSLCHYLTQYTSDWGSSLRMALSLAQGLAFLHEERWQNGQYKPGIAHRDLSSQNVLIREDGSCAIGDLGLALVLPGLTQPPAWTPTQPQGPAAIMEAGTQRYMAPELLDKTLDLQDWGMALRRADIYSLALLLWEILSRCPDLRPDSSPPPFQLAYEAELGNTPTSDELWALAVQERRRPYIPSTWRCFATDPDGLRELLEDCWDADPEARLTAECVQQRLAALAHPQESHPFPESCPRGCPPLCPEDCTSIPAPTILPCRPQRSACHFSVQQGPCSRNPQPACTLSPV


target: T1, AMH-specific type II receptor, AMHR2; test: cell-based or functional assay

Row | AMH activity relative to wild type (%) | EC50 in COV434 BRE-Luc assay [ng/mL] | Maximal response relative to wild-type (%) | Potency relative to ‘wild-type’ | Binder
1 | 100 | ~6 | – | – | hAMH+SCUT+RSA (Wild type) AMH (ligand) chain 1: HHHHHHPAVGTSGLIFREDLDWPPGSPQEPLCLVALGGDSNGSSSPLRVVGALSAYEQAFLGAVQRARWGPRDLATFGVCNTGDRQAALPSLRRLGAWLQDPGGQRLVVLHLEEVTWEPTPSLRFQEPPPGGAGPPELALLVLYPGPGPEVTVTRAGLPGAQSLCPSRDTRYLVLAVDRPAGAWRGSGLALTLQPRGEDSRLSTARLQALLFGDDHRCFTRMTPALLLLPRSEPAPLPAHGQLDTVPFPPPRPSAELEESPPSADPFLETLTRLVRALRVPPARASAPRLALDPDALAGFPQGLVNLSDPAALERLLDGEEPLLLLLRPTAATTGDPAPLHDPTSAPWATALARRVAAELQAAAAELRSLPGLPPATAPLLARLLALCPGGPGGLGDPLRALLLLKALQGLRVEWRGRDPRGPGISSRKKR chain 2: SVSSSAGATAADGPCALRELSVDLRAERSVLIPETYQANNCQGVCGWPQSDRNPRYGNHVVLLLKMQARGAALARPPCCVPTAYAGKLLISLSEERISAHHVPNMVATECGCR
2 | 100 | ~6 | – | – | hAMH+SCUT+RSA double mutant G533A+L535M (ligand) chain 1: HHHHHHPAVGTSGLIFREDLDWPPGSPQEPLCLVALGGDSNGSSSPLRVVGALSAYEQAFLGAVQRARWGPRDLATFGVCNTGDRQAALPSLRRLGAWLQDPGGQRLVVLHLEEVTWEPTPSLRFQEPPPGGAGPPELALLVLYPGPGPEVTVTRAGLPGAQSLCPSRDTRYLVLAVDRPAGAWRGSGLALTLQPRGEDSRLSTARLQALLFGDDHRCFTRMTPALLLLPRSEPAPLPAHGQLDTVPFPPPRPSAELEESPPSADPFLETLTRLVRALRVPPARASAPRLALDPDALAGFPQGLVNLSDPAALERLLDGEEPLLLLLRPTAATTGDPAPLHDPTSAPWATALARRVAAELQAAAAELRSLPGLPPATAPLLARLLALCPGGPGGLGDPLRALLLLKALQGLRVEWRGRDPRGPGISSRKKR chain 2: SVSSSAGATAADGPCALRELSVDLRAERSVLIPETYQANNCQGVCGWPQSDRNPRYGNHVVLLLKMQARGAALARPPCCVPTAYAAKMLISLSEERISAHHVPNMVATECGCR
3 | – | – | ~65 | ~7 fold less potent | hAMH mutant L536I (ligand) chain 1: HHHHHHPAVGTSGLIFREDLDWPPGSPQEPLCLVALGGDSNGSSSPLRVVGALSAYEQAFLGAVQRARWGPRDLATFGVCNTGDRQAALPSLRRLGAWLQDPGGQRLVVLHLEEVTWEPTPSLRFQEPPPGGAGPPELALLVLYPGPGPEVTVTRAGLPGAQSLCPSRDTRYLVLAVDRPAGAWRGSGLALTLQPRGEDSRLSTARLQALLFGDDHRCFTRMTPALLLLPRSEPAPLPAHGQLDTVPFPPPRPSAELEESPPSADPFLETLTRLVRALRVPPARASAPRLALDPDALAGFPQGLVNLSDPAALERLLDGEEPLLLLLRPTAATTGDPAPLHDPTSAPWATALARRVAAELQAAAAELRSLPGLPPATAPLLARLLALCPGGPGGLGDPLRALLLLKALQGLRVEWRGRDPRGPGISSRKKR chain 2: SVSSSAGATAADGPCALRELSVDLRAERSVLIPETYQANNCQGVCGWPQSDRNPRYGNHVVLLLKMQARGAALARPPCCVPTAYAGKLIISLSEERISAHHVPNMVATECGCR
4 | 100 | ~6 | – | – | hAMH+SCUT+RSA L535M mutant (ligand) chain 1: HHHHHHPAVGTSGLIFREDLDWPPGSPQEPLCLVALGGDSNGSSSPLRVVGALSAYEQAFLGAVQRARWGPRDLATFGVCNTGDRQAALPSLRRLGAWLQDPGGQRLVVLHLEEVTWEPTPSLRFQEPPPGGAGPPELALLVLYPGPGPEVTVTRAGLPGAQSLCPSRDTRYLVLAVDRPAGAWRGSGLALTLQPRGEDSRLSTARLQALLFGDDHRCFTRMTPALLLLPRSEPAPLPAHGQLDTVPFPPPRPSAELEESPPSADPFLETLTRLVRALRVPPARASAPRLALDPDALAGFPQGLVNLSDPAALERLLDGEEPLLLLLRPTAATTGDPAPLHDPTSAPWATALARRVAAELQAAAAELRSLPGLPPATAPLLARLLALCPGGPGGLGDPLRALLLLKALQGLRVEWRGRDPRGPGISSRKKR chain 2: SVSSSAGATAADGPCALRELSVDLRAERSVLIPETYQANNCQGVCGWPQSDRNPRYGNHVVLLLKMQARGAALARPPCCVPTAYAGKMLISLSEERISAHHVPNMVATECGCR
5 | 500 | ~1.2 | ~190 | ~5 fold more potent | hAMH+SCUT+RSA G533K mutant (ligand) chain 1: HHHHHHPAVGTSGLIFREDLDWPPGSPQEPLCLVALGGDSNGSSSPLRVVGALSAYEQAFLGAVQRARWGPRDLATFGVCNTGDRQAALPSLRRLGAWLQDPGGQRLVVLHLEEVTWEPTPSLRFQEPPPGGAGPPELALLVLYPGPGPEVTVTRAGLPGAQSLCPSRDTRYLVLAVDRPAGAWRGSGLALTLQPRGEDSRLSTARLQALLFGDDHRCFTRMTPALLLLPRSEPAPLPAHGQLDTVPFPPPRPSAELEESPPSADPFLETLTRLVRALRVPPARASAPRLALDPDALAGFPQGLVNLSDPAALERLLDGEEPLLLLLRPTAATTGDPAPLHDPTSAPWATALARRVAAELQAAAAELRSLPGLPPATAPLLARLLALCPGGPGGLGDPLRALLLLKALQGLRVEWRGRDPRGPGISSRKKR chain 2: SVSSSAGATAADGPCALRELSVDLRAERSVLIPETYQANNCQGVCGWPQSDRNPRYGNHVVLLLKMQARGAALARPPCCVPTAYAKKLLISLSEERISAHHVPNMVATECGCR
6 | 100 | ~6 | – | – | hAMH+SCUT+RSA G533H mutant (ligand) chain 1: HHHHHHPAVGTSGLIFREDLDWPPGSPQEPLCLVALGGDSNGSSSPLRVVGALSAYEQAFLGAVQRARWGPRDLATFGVCNTGDRQAALPSLRRLGAWLQDPGGQRLVVLHLEEVTWEPTPSLRFQEPPPGGAGPPELALLVLYPGPGPEVTVTRAGLPGAQSLCPSRDTRYLVLAVDRPAGAWRGSGLALTLQPRGEDSRLSTARLQALLFGDDHRCFTRMTPALLLLPRSEPAPLPAHGQLDTVPFPPPRPSAELEESPPSADPFLETLTRLVRALRVPPARASAPRLALDPDALAGFPQGLVNLSDPAALERLLDGEEPLLLLLRPTAATTGDPAPLHDPTSAPWATALARRVAAELQAAAAELRSLPGLPPATAPLLARLLALCPGGPGGLGDPLRALLLLKALQGLRVEWRGRDPRGPGISSRKKR chain 2: SVSSSAGATAADGPCALRELSVDLRAERSVLIPETYQANNCQGVCGWPQSDRNPRYGNHVVLLLKMQARGAALARPPCCVPTAYAHKLLISLSEERISAHHVPNMVATECGCR
7 | 350 | ~1.8 | ~140 | ~3 fold more potent | hAMH+SCUT+RSA G533S mutant (ligand) chain 1: HHHHHHPAVGTSGLIFREDLDWPPGSPQEPLCLVALGGDSNGSSSPLRVVGALSAYEQAFLGAVQRARWGPRDLATFGVCNTGDRQAALPSLRRLGAWLQDPGGQRLVVLHLEEVTWEPTPSLRFQEPPPGGAGPPELALLVLYPGPGPEVTVTRAGLPGAQSLCPSRDTRYLVLAVDRPAGAWRGSGLALTLQPRGEDSRLSTARLQALLFGDDHRCFTRMTPALLLLPRSEPAPLPAHGQLDTVPFPPPRPSAELEESPPSADPFLETLTRLVRALRVPPARASAPRLALDPDALAGFPQGLVNLSDPAALERLLDGEEPLLLLLRPTAATTGDPAPLHDPTSAPWATALARRVAAELQAAAAELRSLPGLPPATAPLLARLLALCPGGPGGLGDPLRALLLLKALQGLRVEWRGRDPRGPGISSRKKR chain 2: SVSSSAGATAADGPCALRELSVDLRAERSVLIPETYQANNCQGVCGWPQSDRNPRYGNHVVLLLKMQARGAALARPPCCVPTAYASKLLISLSEERISAHHVPNMVATECGCR
8 | – | – | ~80 | ~3 fold less potent | hAMH mutant L536M (ligand) chain 1: HHHHHHPAVGTSGLIFREDLDWPPGSPQEPLCLVALGGDSNGSSSPLRVVGALSAYEQAFLGAVQRARWGPRDLATFGVCNTGDRQAALPSLRRLGAWLQDPGGQRLVVLHLEEVTWEPTPSLRFQEPPPGGAGPPELALLVLYPGPGPEVTVTRAGLPGAQSLCPSRDTRYLVLAVDRPAGAWRGSGLALTLQPRGEDSRLSTARLQALLFGDDHRCFTRMTPALLLLPRSEPAPLPAHGQLDTVPFPPPRPSAELEESPPSADPFLETLTRLVRALRVPPARASAPRLALDPDALAGFPQGLVNLSDPAALERLLDGEEPLLLLLRPTAATTGDPAPLHDPTSAPWATALARRVAAELQAAAAELRSLPGLPPATAPLLARLLALCPGGPGGLGDPLRALLLLKALQGLRVEWRGRDPRGPGISSRKKR chain 2: SVSSSAGATAADGPCALRELSVDLRAERSVLIPETYQANNCQGVCGWPQSDRNPRYGNHVVLLLKMQARGAALARPPCCVPTAYAGKLMISLSEERISAHHVPNMVATECGCR
9 | – | – | ~65 | ~4 fold less potent | hAMH mutant S538A (ligand) chain 1: HHHHHHPAVGTSGLIFREDLDWPPGSPQEPLCLVALGGDSNGSSSPLRVVGALSAYEQAFLGAVQRARWGPRDLATFGVCNTGDRQAALPSLRRLGAWLQDPGGQRLVVLHLEEVTWEPTPSLRFQEPPPGGAGPPELALLVLYPGPGPEVTVTRAGLPGAQSLCPSRDTRYLVLAVDRPAGAWRGSGLALTLQPRGEDSRLSTARLQALLFGDDHRCFTRMTPALLLLPRSEPAPLPAHGQLDTVPFPPPRPSAELEESPPSADPFLETLTRLVRALRVPPARASAPRLALDPDALAGFPQGLVNLSDPAALERLLDGEEPLLLLLRPTAATTGDPAPLHDPTSAPWATALARRVAAELQAAAAELRSLPGLPPATAPLLARLLALCPGGPGGLGDPLRALLLLKALQGLRVEWRGRDPRGPGISSRKKR chain 2: SVSSSAGATAADGPCALRELSVDLRAERSVLIPETYQANNCQGVCGWPQSDRNPRYGNHVVLLLKMQARGAALARPPCCVPTAYAGKLLIALSEERISAHHVPNMVATECGCR
